This passage reports Km and K0.5 results from paper doi:10.1101/2024.10.18.618978v3.

Substrate in series [1]: NCCCNCCCCNCCCN
Briefly: colorimetric DTNB SSAT assay. It counts as biochemical, Staphylococcus aureus. The following applies: 1 mM AcCoA, pH 7.5, 37 °C, approximate value given in Methods.

Substrate in series [2]: NCCCNCCCCNCCCN
Description: purified protein. The settings on record: 1 mM AcCoA, pH 7.5, 37 °C.

B1: PaiASa (Staphylococcus aureus subsp. aureus USA300) (protein)
chain: MAGIIKEISEQNASELVELATRTFYDTFGSYYDDKDFDQFFKDNYTVEKFTQEINHVDSFHYFYQEDGANVGYIKMNINSAQTEEMGETYLEVQRIYFLKDFQGGGRGSQLIELAEKIAQEHNKHKIWLGVWEHNPRAQAFYKRHGFKVVGEHHFQTGDVTDTDLIMEKEL
On to B1, for which the Km (usually the substrate concentration at which the rate is half of its maximum) in series [1] was 2000 µM.

B2: SpeG (Staphylococcus aureus subsp. aureus USA300) (protein)
chain: MKLRALEYSDLLFVHELNNEYSIMSYWFEEPYESLTELQHLFDKHLLDESERRFIVEDENQVVGIVELVEINYIHRNCEIQIIIKPEFSGKGYAKFAFEKAIIYAFNILNMHKIYLYVDADNKKAIHIYESQGFKTEGLLKEQFYTKGKYKDAYFMSLLKSEYIL
For B2, in series [2] (Michaelis-Menten fit), the Km was found to be 1312 ± 348.1 µM. For the same protein, the K0.5 in series [2] (allosteric sigmoidal fit) was 757.5 ± 63.35 µM.
